The target of series [1] is FITC-labeled 45-mer peptide derived from the C-terminal region of IKKβ (FITC label (position not given)). The experiment in a line: fluorescence polarisation; fluorescence anisotropy binding assay with the FITC-labeled IKKβ 45-mer peptide and NEMO proteins; conditions not told (refs 13, 23). Conditions: both partners purified. In general terms: Polarisation of emitted light reports the rotation of a fluorescent probe.

The target of series [2] is 45-mer peptide of IKKβ (as used in the CD experiments). Description: circular dichroism (spectra and thermal denaturation with and without ligand); 10 µM NEMO protein with or without equimolar IKKβ 45-mer peptide, incubated 1 h at room temperature; 20 mM sodium phosphate, 500 mM NaCl, pH 7.4; spectra at 25 °C, melt 10 to 70 °C at 222 nm. To be noted: both partners purified. For orientation: Circular dichroism is widely used to follow secondary structure.

The text below walks through data of article doi:10.1101/2023.05.25.542299, “A Conserved Core Region of the Scaffold NEMO is Essential for Signal-induced Conformational Change and Liquid-liquid Phase Separation” (bioRxiv, 2023).

B1: 7XAla-NEMO (aa 1–419), bacterially expressed (natural protein)
chain: MNRHLWKSQLAEMVQPSGGPAADQDVLGEESPLGKPAMLHLPSEQGAPETLQRALEENQELRDAIRQSNQILRERAEELLHFQASQREEKEFLMAKFQEARKLVERLGLEKLDLKRQKEQALREVEHLKRAQQQMAEDKASVKAQVTSLLGELQESQSRLEAATKEAQALEGRARAASEQARQLESEREALQQQHSVQVDQLRMQGQSVEAALRMERQAASEEKRKLAQLQVAYHQLFQEYDNHIKSSVVGSERKRGMQLEDLKQQLQQAEEALVAKQEVIDKLKEEAEQHKIVMETVPVLKAQADIYKADFQAERQAREKLAEKKELLQEQLEQLQREYSKLKASAQESARIEDMRKRHVEVSQAPLPPAPAYLSSPLALPSQRRSPPEEPPDFCCPKCQYQAPDMDTLQIHVMECIE
Usually Kd stands for the free concentration of one partner at which half of the binding sites on the other are occupied at equilibrium, for simple one-to-one binding. Low readings indicate higher affinity, high ones lower affinity. As to B1, in series [1], the Kd came out at 13 ± 2.9 nM. The “increase in Tm with equimolar peptide” value in series [2] amounted to 3 °C.
